Assay results from patent publication US20190309094A1.
Each block holds one substance with its values, some of them ahead of it.

Assays:
[1] = biological target: hCD3εγ chains (human) (UniProt P07766); assay: ELISA on hCD3εγ chains, curve fit
[2] = biological target: hCD3εγ chains (human) (UniProt P07766); assay: ELISA on hCD3εγ chains, curve fit (unit from the axis)
[3] = biological target: CD3 on Jurkat luciferase reporter cells (Homo sapiens (Human)) (UniProt P07766); assay: flow cytometry on Jurkat_NFAT_Luc2P cells, FITC-A; histogram shifted to between 10^3 and 10^4
[4] = biological target: CD3 on Jurkat luciferase reporter cells (Homo sapiens (Human)) (UniProt P07766); assay: flow cytometry on Jurkat_NFAT_Luc2P cells, control staining in all three panels
[5] = biological target: CD3 on Jurkat luciferase reporter cells (Homo sapiens (Human)) (UniProt P07766); assay: flow cytometry on Jurkat_NFAT_Luc2P cells, PE-A; histogram shifted to about 10^4

Sequence of UCHT1 (antibody) (V domain): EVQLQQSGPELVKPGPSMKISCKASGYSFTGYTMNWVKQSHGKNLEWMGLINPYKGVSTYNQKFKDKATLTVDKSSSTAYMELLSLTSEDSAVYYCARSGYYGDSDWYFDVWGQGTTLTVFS
Sequence of UCHT1 (antibody) (VL): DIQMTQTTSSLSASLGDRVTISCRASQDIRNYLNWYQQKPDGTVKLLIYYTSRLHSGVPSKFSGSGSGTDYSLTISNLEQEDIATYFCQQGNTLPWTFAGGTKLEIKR

- Bmax [1]: 1.52 OD 450 nm
- Kd [2]: 33.3 nM
Substance: UCHT1 (antibody)

- Fold (fold over hIgG) [3]: 45
Substance: mOKT3 (antibody)

- Fold (fold (reference)) [4]: 1
Substance: hIgG (antibody)

- Fold (fold over hIgG) [5]: 58
Substance: Commercial CD3e(HiT3a) (antibody)
